Laboratory results reported in the Human Domainome abundance scans (Beltran et al. 2025).

B1: POU domain, class 5, transcription factor 1, residues 134 to 212; numbered along this chain, Q01860 (parent)
chain: EESQDIKALQKELEQFAKLLKQKRITLGYTQADVGLTLGVLFGKVFSQTTICRFEALQLSFKNMCKLRPLLQKWVEEAD
B2: Histone-lysine N-methyltransferase SETD2, residues 2382 to 2430; numbered along this chain, Q9BYW2 (parent)
chain: SPPKPKTIVLPPNWKTARDPEGKIYYYHVITRQTQWDPPTWESPGDDAS

Variants of: B1
Assay: abundance fitness (aPCA) (normalised: wild type 0, dead -1); higher = more abundant; growth selection in yeast, the domain comes from the species named
Conditions: Homo sapiens

Abundance fitness: each site, then its substitutions
Q72: S -0.371; V -0.337; G -0.302; W -0.837; Y -0.582; R -0.309; M -0.31; T -0.36; D -0.379; L -0.323; P -0.438; E 0.342; C -0.09; I -0.119; K -0.025; A -0.354; H -0.039
E77: A -0.124; Y 0.096; D -0.107; G -0.124; T -0.129; L -0.124; R -0.108; H 0.144; I -0.079; W 0.226; N 0.718; V -0.161; P -0.264; M 0.037; Q 0.184; K -0.074
L70: T -0.325; R -0.653; Q 0.143; W -0.442; P -0.364; F 0.145; G -0.574; C -0.171; Y 0.262; V -0.406
V75: K -0.056; W -0.802; P -0.203; S -0.106; G -0.645; A -0.815; M -0.293; C -0.343; H -0.025; E -0.353; D -0.413; T -0.299; Q -0.206; R -0.661; I 0.056
L71: H -0.207; M -0.251; P -0.07; Y -0.435; W -0.323; C -0.474; S -0.911; A -0.51; F -0.562; R -0.509; V -0.728; T -0.246; D -0.869; E -0.344; Q -0.658
R68: D -0.621; W 0; G -0.797; A -0.265; Q -0.384; Y 0.356; P -0.734; L -0.222; E -0.421; K -0.154; S -0.535; V -0.609; T -0.436
A78: G -0.304; E -0.06; C -0.36; R -0.289; Q 0.053; V 0.216; M -0.033; P -0.549; S -0.13; T -0.014; I 0.292
D79: G -0.312; A -0.741; R -0.187; V 0.111; Y -0.505; T -0.122; S -0.374; E -0.067; P 0.393; C -0.509
E76: S -0.188; L -0.368; K -0.133; H -0.032; F -0.155; M -0.017; Q -0.173; V -0.434; D 0.003; R -0.315; A -0.139; W -0.425; G -0.644; C -0.066; P -0.892
W74: D -0.447; V -0.264; G -0.158; R -0.734; F -0.131; E -0.138
K73: M -0.799; G -0.386; F -0.566; T -0.083; W -0.474; Y -0.595; I -0.448; S -0.659; L -0.289; P -0.506; A -0.131; C -0.397; E -0.595; Q -0.1; H -0.349
P69: K -0.304; V -0.414; W -0.999; G -0.085; F -0.473; A -0.252; M -0.662; R -0.613; N -0.008; L -0.351; H -0.208; T -0.652; Q -0.618

Variants of: B2
Assay: as above
Conditions: Homo sapiens

Abundance fitness of substitutions, site by site:
S1: E -0.534; A -0.597; F 0.246; C 0.007; Y -0.521; N 0.442; V -0.252
V9: M 0.228; W -0.24; L -0.075; G -0.167; A -0.187; C 0.084; Y -0.362; E -0.255; N 0.21; P -0.538; I 0.132; D 0.486; T 0.123; K 0.022; Q -0.097; F 0.049; S -0.093; R 0.025; H -0.068
P11: C -0.694; I -0.84; D -0.156; N -0.371; K -0.281; F -0.43; L -0.279; A -0.388; M -0.374; E -0.5
P5: E 0.057; V 0.162; W -0.63; M 0.199; Y -0.066; G 0.118; R -0.006; A 0.102; K 0.159; L 0.125; T 0.211; S 0.163; I 0.077; Q 0.007; D 0.133; H -0.17; N 0.294; F 0.133; C -0.396
K6: M 0.018; D -0.074; T -0.148; Y -0.227; P -0.35; E -0.19; R -0.046; L -0.339; I -0.037; C -0.303; A -0.032; N 0.018; F -0.121; W -0.393; S 0.103; Q 0.07; G 0.037
K4: D -0.927; E -0.908; R -0.532; C -0.564; M -0.051; S 0.007; Y -0.046; V -0.573; I -0.154; T -0.275; W -0.798; G -0.97; L -0.293; P -0.386; N -0.144; A -0.836; Q -0.541; F -0.41; H -0.221
I8: R 0.06; N 0.112; F -0.021; Y -0.108; Q -0.056; D -0.164; A -0.1; L 0.165; V 0.201; G 0.037; K 0.03; M 0.179; T 0.021; C 0.105; P -0.282; W 0.001; E -0.096
L10: I -0.026; G -0.564; M -0.314; F -0.142; Y -0.249; A -0.759; Q -0.529; K -0.553; H -0.255; C -0.191; N -0.46; R -0.647; D -0.489; V -0.242; S -0.684; T -0.431
P3: A -0.191; K 0.325; T 0.155; W 0.064; Q 0.262; S 0.281; F 0.197; C -0.508; Y 0.335; G 0.129; V 0.444; D 0.371; N 0.585; M 0.369; H 0.126; R 0.274; E 0.408; L 0.105; I 0.115
T7: F 0.278; G 0.138; D -0.134; V -0.148; L -0.214; A 0.028; N 0.127; S 0.105; R 0.094; C -0.062; Y -0.155; Q 0.013; I -0.212; W -0.462; M 0.026; H 0.116; E -0.045; P -0.375
P2: A 0.131; I 0.712; V -0.065; S 0.237; Y 0.539; N 0.461; G 0.045; K -0.087; M 0.026; L 0.317; E -0.224; T 0.178; F 0.031; Q -0.007; W -0.293; H 0.314; R -0.118
